How the values were obtained:
alpha-synuclein (human) = experiment: EMSA; details: 57 uM protein; 10% gel; N=3; EMSA: 20 ng DNA in 20 uL, 94 mM Tris-Cl pH 8.0, 25 mM NaCl, 1 mM EDTA, 5% ficoll; on ice 20 min then RT 30 min; 10% or 6% polyacrylamide TBE gel, 100 V …
[1] = tested on: S129-phospho-alpha-synuclein (human); experiment: EMSA; details: 57 uM stated for GST in the comparison; 10% gel; N=3; EMSA: 20 ng DNA in 20 uL, 94 mM Tris-Cl pH 8.0, 25 mM NaCl, 1 mM EDTA, 5% ficoll; on ice 20 min then RT 30 min; 10% or 6% polyacrylamide TBE gel, 100 V …

300 bp dsDNA
binding signal (fraction shifted) (alpha-synuclein (human)): 0.86 | binding signal (fraction shifted) [1]: 0.58
